The assay deals with T1, Human recombinant LOXL2 (lysyl oxidase like 2) (human, UniProt Q9Y4K0 26-774).
T1 construct: lysyl oxidase like 2 (LOXL2), human, recombinant; source: bought: R&D Systems (catalog #2639-AO-010)
T1 sequence (looked up): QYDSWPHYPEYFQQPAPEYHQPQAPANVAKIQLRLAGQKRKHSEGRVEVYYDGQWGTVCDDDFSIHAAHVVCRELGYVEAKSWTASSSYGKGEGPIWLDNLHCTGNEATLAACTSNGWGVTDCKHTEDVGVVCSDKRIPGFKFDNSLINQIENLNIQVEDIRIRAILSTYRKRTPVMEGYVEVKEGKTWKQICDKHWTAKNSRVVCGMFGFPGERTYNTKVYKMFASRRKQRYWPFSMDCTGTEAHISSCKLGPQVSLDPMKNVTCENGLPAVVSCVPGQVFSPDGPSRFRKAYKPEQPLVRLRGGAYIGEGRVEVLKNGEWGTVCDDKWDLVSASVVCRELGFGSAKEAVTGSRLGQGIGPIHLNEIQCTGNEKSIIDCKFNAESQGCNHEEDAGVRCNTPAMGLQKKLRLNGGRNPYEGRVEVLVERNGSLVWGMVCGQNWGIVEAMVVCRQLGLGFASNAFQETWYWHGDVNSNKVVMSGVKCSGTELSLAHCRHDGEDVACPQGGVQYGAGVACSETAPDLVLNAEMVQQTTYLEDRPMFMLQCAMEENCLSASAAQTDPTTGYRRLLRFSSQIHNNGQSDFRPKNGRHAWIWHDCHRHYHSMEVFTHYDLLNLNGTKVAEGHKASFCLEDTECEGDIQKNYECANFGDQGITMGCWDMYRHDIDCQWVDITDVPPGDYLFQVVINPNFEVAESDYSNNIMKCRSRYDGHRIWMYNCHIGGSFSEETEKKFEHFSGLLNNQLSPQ
The assay is described as follows: pull-down; recombinant human PEAR1 (100 nM) immobilised on Ni-NTA magnetic beads, incubated with 100 nM recombinant human CTSD, SEMA6D or LOXL2 in 50 mM NaH2PO4, 300 mM NaCl, 20 mM imidazole, pH 8.0, 1 h at room temperature; control Ni-NTA beads; immunoblotting. The following applies: both partners purified.

B1: Human recombinant PEAR1 extracellular part (platelet and endothelial aggregation receptor 1), His-tagged (domain or fragment, UniProt Q5VY43 21-755, looked up)
chain: LNPSDPNTCSFWESFTTTTKESHSRPFSLLPSEPCERPWEGPHTCPQPTVVYRTVYRQVVKTDHRQRLQCCHGFYESRGFCVPLCAQECVHGRCVAPNQCQCVPGWRGDDCSSECAPGMWGPQCDKPCSCGNNSSCDPKSGVCSCPSGLQPPNCLQPCTPGYYGPACQFRCQCHGAPCDPQTGACFCPAERTGPSCDVSCSQGTSGFFCPSTHSCQNGGVFQTPQGSCSCPPGWMGTICSLPCPEGFHGPNCSQECRCHNGGLCDRFTGQCRCAPGYTGDRCREECPVGRFGQDCAETCDCAPDARCFPANGACLCEHGFTGDRCTDRLCPDGFYGLSCQAPCTCDREHSLSCHPMNGECSCLPGWAGLHCNESCPQDTHGPGCQEHCLCLHGGVCQATSGLCQCAPGYTGPHCASLCPPDTYGVNCSARCSCENAIACSPIDGECVCKEGWQRGNCSVPCPPGTWGFSCNASCQCAHEAVCSPQTGACTCTPGWHGAHCQLPCPKGQFGEGCASRCDCDHSDGCDPVHGRCQCQAGWMGARCHLSCPEGLWGVNCSNTCTCKNGGTCLPENGNCVCAPGFRGPSCQRSCQPGRYGKRCVPCKCANHSFCHPSNGTCYCLAGWTGPDCSQPCPPGHWGENCAQTCQCHHGGTCHPQDGSCICPLGWTGHHCLEGCPLGTFGANCSQPCQCGPGEKCHPETGACVCPPGHSGAPCRIGIQEPFTVMPTTPVAYNSL
notes: platelet and endothelial aggregation receptor 1 (PEAR1), human, extracellular part; Held on Ni-NTA magnetic agarose beads by its His tag in the pull-downs; also called rhPEAR1; PEAR1 agarose; source: bought: R&D Systems (catalog #4527-PR-050)
Take B1: the binding result is reported as “binds”.

The record behind these values is publication PMC12581312, “Lung endothelial PEAR1 induces tumor cell dormancy” (Molecular Cancer, 2025).
